Measurements from US20090166224A1 (published 2009).

Tests used:
Experiment in all cases: human serum on Con A/WGA/Jacalin column, lectin-specific displacer fraction, LC-MS/MS; grade = SEQUEST rank group (+ = ranks 1-5, ++++ = 16-20)
[1] = molecular target: T1, CARBOXYPEPTIDASE N 83 KDA CHAIN (human, UniProt P22792 22-545)
T1 construct: from human serum; also called CBP8
T1 sequence (looked up): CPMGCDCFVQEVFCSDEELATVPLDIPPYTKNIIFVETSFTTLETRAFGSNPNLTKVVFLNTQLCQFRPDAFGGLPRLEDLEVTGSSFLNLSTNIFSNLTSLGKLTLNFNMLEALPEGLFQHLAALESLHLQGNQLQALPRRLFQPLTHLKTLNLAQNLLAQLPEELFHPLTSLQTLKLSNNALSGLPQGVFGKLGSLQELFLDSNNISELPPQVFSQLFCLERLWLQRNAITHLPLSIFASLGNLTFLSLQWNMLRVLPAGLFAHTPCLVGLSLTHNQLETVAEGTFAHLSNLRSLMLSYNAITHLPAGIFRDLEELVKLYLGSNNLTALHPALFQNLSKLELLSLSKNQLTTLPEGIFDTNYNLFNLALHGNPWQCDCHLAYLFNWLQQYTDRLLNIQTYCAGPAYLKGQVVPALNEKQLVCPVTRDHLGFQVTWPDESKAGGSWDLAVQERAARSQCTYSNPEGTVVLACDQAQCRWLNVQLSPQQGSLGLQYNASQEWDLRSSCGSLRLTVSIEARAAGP

[2] = molecular target: T2, HAPTOGLOBIN-RELATED PROTEIN (human, UniProt P00739 1-348, limits assumed)
T2 construct: from human serum; also called HPTR
T2 sequence (looked up): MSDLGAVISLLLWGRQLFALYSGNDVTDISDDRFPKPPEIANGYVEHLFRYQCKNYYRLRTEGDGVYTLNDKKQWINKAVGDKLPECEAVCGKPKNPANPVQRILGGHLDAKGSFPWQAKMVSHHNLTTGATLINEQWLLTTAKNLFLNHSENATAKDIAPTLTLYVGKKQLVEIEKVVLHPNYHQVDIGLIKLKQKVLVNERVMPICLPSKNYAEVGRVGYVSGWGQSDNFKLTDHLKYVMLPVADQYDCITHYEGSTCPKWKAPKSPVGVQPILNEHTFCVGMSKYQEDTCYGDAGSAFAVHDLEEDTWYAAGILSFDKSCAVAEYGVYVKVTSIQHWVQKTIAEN

[3] = molecular target: T3, INTER-ALPHA-TRYPSIN INHIBITOR HEAVY CHAIN H1 (human, UniProt P19827 35-672)
T3 construct: from human serum; also called ITH1
T3 sequence (looked up): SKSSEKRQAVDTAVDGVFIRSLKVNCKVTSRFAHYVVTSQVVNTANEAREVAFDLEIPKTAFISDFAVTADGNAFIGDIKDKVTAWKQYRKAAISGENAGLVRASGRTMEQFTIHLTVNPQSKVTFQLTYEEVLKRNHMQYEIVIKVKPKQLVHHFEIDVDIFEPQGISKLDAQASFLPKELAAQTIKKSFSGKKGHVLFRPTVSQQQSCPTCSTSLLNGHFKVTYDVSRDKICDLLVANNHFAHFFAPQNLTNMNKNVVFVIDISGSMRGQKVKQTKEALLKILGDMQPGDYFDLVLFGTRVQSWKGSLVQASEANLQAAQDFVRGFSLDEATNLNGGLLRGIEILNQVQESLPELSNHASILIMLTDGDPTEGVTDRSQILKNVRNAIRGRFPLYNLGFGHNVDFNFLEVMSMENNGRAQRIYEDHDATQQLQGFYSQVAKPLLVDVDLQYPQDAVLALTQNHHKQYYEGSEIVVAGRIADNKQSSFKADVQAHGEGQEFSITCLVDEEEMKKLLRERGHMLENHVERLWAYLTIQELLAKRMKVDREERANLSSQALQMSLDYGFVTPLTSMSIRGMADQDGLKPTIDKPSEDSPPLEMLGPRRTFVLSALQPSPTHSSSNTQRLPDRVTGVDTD

VITRONECTIN = molecular target: T4, VITRONECTIN (human, UniProt P04004 20-478)
T4 construct: from human serum; also called VTNC
T4 sequence (P04004 20-478 limits assumed): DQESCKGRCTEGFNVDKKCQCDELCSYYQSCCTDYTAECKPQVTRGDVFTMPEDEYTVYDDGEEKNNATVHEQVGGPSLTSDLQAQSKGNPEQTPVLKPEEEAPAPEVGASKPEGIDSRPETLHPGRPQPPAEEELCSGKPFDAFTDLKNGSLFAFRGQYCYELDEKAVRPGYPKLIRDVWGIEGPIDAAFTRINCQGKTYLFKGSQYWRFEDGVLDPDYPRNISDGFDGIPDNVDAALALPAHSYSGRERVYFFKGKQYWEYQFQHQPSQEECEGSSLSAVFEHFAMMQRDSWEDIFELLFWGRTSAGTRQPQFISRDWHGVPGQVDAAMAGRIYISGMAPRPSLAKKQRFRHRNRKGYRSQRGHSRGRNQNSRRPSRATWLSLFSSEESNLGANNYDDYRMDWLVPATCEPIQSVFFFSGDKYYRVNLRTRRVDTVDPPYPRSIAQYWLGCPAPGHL

B1: wheat germ agglutinin (WGA), agarose-bound (other, UniProt P10968 27-197, looked up)
chain: QRCGEQGSNMECPNNLCCSQYGYCGMGGDYCGKGCQNGACWTSKRCGSQAGGATCTNNQCCSQYGYCGFGAEYCGAGCQGGPCRADIKCGSQAGGKLCPNNLCCSQWGFCGLGSEFCGGGCQSGACSTDKPCGKDAGGRVCTNNYCCSKWGSCGIGPGYCGAGCQSGGCDG
modifications: immobilized on agarose
notes: Lectin; released with N-acetyl-glucosamine; Coated on the plate in the lectin ELISA
SEQUEST ranking (relative abundance in the WGA displacement fraction) [1]: 6 to 10 rank | SEQUEST ranking (relative abundance in the WGA displacement fraction) [2]: 1 to 5 rank | SEQUEST ranking (relative abundance in the WGA displacement fraction) [3]: 11 to 15 rank | SEQUEST ranking (relative abundance in the WGA displacement fraction) (VITRONECTIN): 6 to 10 rank
